Assay results reported in paper PMC7884335.
pKd: −log10 of the molar value.

Legend:
Conditions in all cases: EMSA: Tris-HCl pH 8.0, MgCl2, NaCl, EDTA, 1 mM DTT, 0.01% NP-40, 50 ug/ml poly[d(I-C)], glycerol (masses given, total volume not stated), room temperature …
[1] = test system: His-PrpR (Msm) (Mycobacterium smegmatis MC2 155); assay: BLI
[2] = test system: His-RegX3 (Msm) (Mycobacterium smegmatis MC2 155); assay: BLI
[3] = target: T1, His-RegX3 (Msm) (Mycobacterium smegmatis MC2 155) (UniProt Q9F868); assay: EMSA
T1 sequence: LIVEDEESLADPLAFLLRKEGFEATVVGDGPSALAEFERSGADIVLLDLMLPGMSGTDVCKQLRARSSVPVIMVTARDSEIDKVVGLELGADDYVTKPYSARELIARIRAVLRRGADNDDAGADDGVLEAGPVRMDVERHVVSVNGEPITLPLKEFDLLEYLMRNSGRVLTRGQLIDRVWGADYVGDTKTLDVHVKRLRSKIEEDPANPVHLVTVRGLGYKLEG

Substance | pKd [1] | pKd [2] | binding [3]
prpR promoter probe for BLI (Msm) | 7.27 | 6.78 | –
AGCCAGTGGCGATAAGACACACAGCCTAACCGCGATTCTTACACAGGATTTGCAAAGGCTGGCCCACCAGGACACAAAACTACGCATATACAGGCTCTTTACGTGCCATTAGGGGCCTTATCGCCACTGGCT (double strand) [PprpR-3] | – | – | binds
